Publication PMC5450233

Target: HA–KLC2, O88448
Experiment: GST pull-down, immunoblot (IB: HA) quantified
Conditions: chain shown with the change; lysates of 293T cells co-expressing HA-KHC and HA-KLC2 (kinesin-1 tetramer); three independent experiments; parent: est. 1.0; read off a plot

Chain of HA–KLC2, O88448 (O88448 whole entry): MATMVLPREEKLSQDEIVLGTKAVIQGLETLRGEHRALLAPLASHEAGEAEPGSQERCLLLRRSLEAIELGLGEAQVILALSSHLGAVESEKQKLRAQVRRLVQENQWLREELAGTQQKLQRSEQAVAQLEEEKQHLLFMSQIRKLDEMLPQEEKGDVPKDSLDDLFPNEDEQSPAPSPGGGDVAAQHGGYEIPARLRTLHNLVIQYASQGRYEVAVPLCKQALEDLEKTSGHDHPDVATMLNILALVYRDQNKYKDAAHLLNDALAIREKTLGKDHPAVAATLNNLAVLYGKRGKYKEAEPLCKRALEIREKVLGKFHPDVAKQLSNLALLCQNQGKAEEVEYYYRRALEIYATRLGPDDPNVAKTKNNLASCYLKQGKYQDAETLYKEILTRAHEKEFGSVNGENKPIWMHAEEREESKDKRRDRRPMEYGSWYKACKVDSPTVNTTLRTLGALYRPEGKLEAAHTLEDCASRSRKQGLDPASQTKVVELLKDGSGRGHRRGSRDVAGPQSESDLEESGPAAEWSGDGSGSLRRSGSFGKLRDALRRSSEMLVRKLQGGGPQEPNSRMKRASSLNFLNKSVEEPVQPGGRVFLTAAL

| Binder | ratio to parent |
| --- | --- |
| GST–SKIP(1-310), Q8IWE5 D220A; F221A; G222A (protein) MEPGEVKDRILENISLSVKKLQSYFAACEDEIPAIRNHDKVLQRLCEHLDHALLYGLQDLSSGYWVLVVHFTRREAIKQIEVLQHVATNLGRSRAWLYLALNENSLESYLRLFQENLGLLHKYYVKNALVCSHDHLTLFLTLVSGLEFIRFELDLDAPYLDLAPYMPDYYKPQYLLDFEDRLPSSVHGSDSLSLNSFNSVTSTNLEWDDSAIAPSSEDYAAADVFPAVPSVPSTDWEDGDLTDTVSGPRSTASDLTSSKASTRSPTQRQNPFNEEPAETVSSSDTTPVHTTSQEKEEAQALDPPDACTEL | 0.47 |
| GST–SKIP(1-310), Q8IWE5 D238A; G239A; D240A (protein) MEPGEVKDRILENISLSVKKLQSYFAACEDEIPAIRNHDKVLQRLCEHLDHALLYGLQDLSSGYWVLVVHFTRREAIKQIEVLQHVATNLGRSRAWLYLALNENSLESYLRLFQENLGLLHKYYVKNALVCSHDHLTLFLTLVSGLEFIRFELDLDAPYLDLAPYMPDYYKPQYLLDFEDRLPSSVHGSDSLSLNSFNSVTSTNLEWDDSAIAPSSEDYDFGDVFPAVPSVPSTDWEAAALTDTVSGPRSTASDLTSSKASTRSPTQRQNPFNEEPAETVSSSDTTPVHTTSQEKEEAQALDPPDACTEL | 0.89 |

Continued, values first:

| ratio to parent | Binder |
| --- | --- |
| 0.95 | GST–SKIP(1-310), Q8IWE5 W236A; E237A (protein) MEPGEVKDRILENISLSVKKLQSYFAACEDEIPAIRNHDKVLQRLCEHLDHALLYGLQDLSSGYWVLVVHFTRREAIKQIEVLQHVATNLGRSRAWLYLALNENSLESYLRLFQENLGLLHKYYVKNALVCSHDHLTLFLTLVSGLEFIRFELDLDAPYLDLAPYMPDYYKPQYLLDFEDRLPSSVHGSDSLSLNSFNSVTSTNLEWDDSAIAPSSEDYDFGDVFPAVPSVPSTDAADGDLTDTVSGPRSTASDLTSSKASTRSPTQRQNPFNEEPAETVSSSDTTPVHTTSQEKEEAQALDPPDACTEL |
| 0.63 | GST–SKIP(1-310), Q8IWE5 E217A; D218A; Y219A (protein) MEPGEVKDRILENISLSVKKLQSYFAACEDEIPAIRNHDKVLQRLCEHLDHALLYGLQDLSSGYWVLVVHFTRREAIKQIEVLQHVATNLGRSRAWLYLALNENSLESYLRLFQENLGLLHKYYVKNALVCSHDHLTLFLTLVSGLEFIRFELDLDAPYLDLAPYMPDYYKPQYLLDFEDRLPSSVHGSDSLSLNSFNSVTSTNLEWDDSAIAPSSAAADFGDVFPAVPSVPSTDWEDGDLTDTVSGPRSTASDLTSSKASTRSPTQRQNPFNEEPAETVSSSDTTPVHTTSQEKEEAQALDPPDACTEL |
